Test results taken from US20250357519.

Key:
[1] = biological target: partially acetylated equine heart cytochrome c (Sigma C4186), P00004
[2] = biological target: native equine heart cytochrome c (Sigma C2506), P00004
Sequence of native equine heart cytochrome c (Sigma C2506), P00004 (P00004 2-105): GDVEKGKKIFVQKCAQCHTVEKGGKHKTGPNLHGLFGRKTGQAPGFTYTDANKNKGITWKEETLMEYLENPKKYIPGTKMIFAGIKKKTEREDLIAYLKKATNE

Sequence of partially acetylated equine heart cytochrome c (Sigma C4186), P00004 (P00004 2-105): as above

B1: Strep-tag II-tagged DvH-FDH2 (recombinant formate dehydrogenase 2 from Desulfovibrio vulgaris Hildenborough, heterodimer of large and small subunit) (protein)
chain 1: MRMPRRTFIKLASASAGALAFAGLGQSLAPTVARAAELKIAKAKVTPSVCCFCAVGCGLLVYTDTQTGRSINIEGDPDHPTNEGTLCPKGASIWQTTERSKRVTKVLYRAPGAAAWEEKSWDWALPRIARKIKETRDATFELTNDKGQTVNRTRGIASVGSAAVDNEEGWLMQAMMRALGLVYIESHARIUHSSTVGALAESYGRGAMTNHWIDLKNSDVILIMGSNAAENHPISFKWVTRAQERGATLIHVDPRFTRTSAKADIHAHIRSGTDIAFFGGLIRYIMENDLFFRQYVVDYTNASYIVGADYGFADGLFTGFDAEKGTYNTKKWAFAADENGMTLKDPTLNDPRCVFQLMKAHYARYDRKTVSDVTGISEEQLATLWSTFASTGKPDRAGTILYAMGQCQHTVGVQNIRALSMIQLLLGNIGIAGGGVNALRGESNVQGTTDISLLCDNLSGYLPTPKASWATFDDYVKGTTPVDKDPKSANWWSNRGKYLASYMKSVYPTASHQDGYLWHPKVDDGKITDYSWLQIFERMSKGGFKGAFVWGQNPCAGGANAGKNRKAMETLDWMVVVNLFENESSLFWKGPGVDPAKVKTEVFFLPACMSVEKGGSIANSGRWLQWREPGPKPMGDSRSDGDIVLDLYDEIRKLYREEKGAFPEPVLALDTDYRTDGKYDHHKVAKTLNGKFLTDVTIGDKTYKAGQQVPGFAMLQADGSTTSGCWIFTGCYTDAGNMMARRDRTQTPEQAAIGLFPNWSYAWPANRRILYNRAAVDMTGKPFDPKRAVIAWNGEKWVGDVPDGGWKPGEKLPFIMIREGRGQLFGPGRVDGPFPEHYEPFESPLESHPFSKQRVNPTALAFSHEPKAVRDKRYPFICTTYRVTEQWQSGTMTRNTGWLKEMQPEGFCEISRELAKELGIANGDAVVLESLRGKVQVVAIVTPRLKPFKVMGEVMHEVGIPWQFGWGQHVGKGDSANLLSPSVGDPNTGIPETKVFMVNLRKA
chain 2: MRPLGSLPQGMRRVSRRHIREAYMNGKTFFIDQTRCTACRGCQAACKQWKKFGSIETRNTGSYQNPPDLGPSTFKLVRFNEVEVDGKLKWLFFPEQCRHCLEPPCKMVADALIPGAIVQDAETGAVLYTEKTKGLDYMEVRSACPYDIPRQDPATGLLTKCNMCIDRVQNGMLPACVKTCPTGTMHFGDRADMLELAQKRLGEVKKRSPAALLADSDLVRVLYLCELAPANYHSHMVAEADTSRIGPFSRRALLRLRPFA
With B1 the “reduction of acetylated equine cytochrome c during DvH-FDH2 catalysis (absorbance at 550 nm)” value [1] was “DvH-FDH2 does not reduce acetylated cytochrome c”, the “reduction of native equine cytochrome c in air at doubled formate concentration (electronic spectra)” value [2] was “Doubling the formate concentration resulted in near-stoichiometric reduction in air” and the “reduction of native equine cytochrome c in the presence of formate (absorbance at 550 nm), anaerobic” value [2] was “stoichiometric reduction occurred under anaerobic conditions”. The “reduction of native equine cytochrome c in the presence of formate (absorbance at 550 nm), in air” value [2] was ~80% underwent reduction in air.
